This is an account of results in patent US20090180995A1, “NOVEL ANTICOAGULANT POLYPEPTIDES AND COMPLEX” (National University of Singapore, priority 2005, published 2009).

Assay [1] deals with FVIIa (human) (UniProt P08709).
Assay [2] has as its target FVIIa (human) (UniProt P08709). As to the kind of experiment: cell-based or functional assay.
Assay [3] addresses FVIIa-sTF (human) (UniProt P08709). As to the kind of experiment: cell-based or functional assay.
Assay [4] has the same target. As to the kind of experiment: non-competitive inhibition kinetics of FVIIa-sTF amidolytic activity on S-2288.

Sequence of FVIIa (human) (P08709 61-212 limits assumed, chain 1 of 2): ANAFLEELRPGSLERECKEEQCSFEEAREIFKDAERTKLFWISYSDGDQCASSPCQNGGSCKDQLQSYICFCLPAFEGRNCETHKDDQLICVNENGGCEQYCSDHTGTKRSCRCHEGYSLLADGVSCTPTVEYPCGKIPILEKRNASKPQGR
Sequence of FVIIa (human) (P08709 213-466 limits assumed, chain 2 of 2): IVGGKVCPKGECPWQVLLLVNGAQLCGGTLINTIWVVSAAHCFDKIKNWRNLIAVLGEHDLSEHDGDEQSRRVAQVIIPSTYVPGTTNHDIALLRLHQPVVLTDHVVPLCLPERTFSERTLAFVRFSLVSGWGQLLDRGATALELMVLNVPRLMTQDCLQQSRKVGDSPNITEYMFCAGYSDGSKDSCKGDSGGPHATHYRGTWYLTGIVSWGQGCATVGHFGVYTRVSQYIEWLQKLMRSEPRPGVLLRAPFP
Sequence of FVIIa-sTF (human) (P08709 61-212 limits assumed, chain 1 of 3): as the sequence (P08709 61-212 limits assumed, chain 1 of 2) above
Sequence of FVIIa-sTF (human) (P13726 33-251 limits assumed, chain 2 of 3, further chain): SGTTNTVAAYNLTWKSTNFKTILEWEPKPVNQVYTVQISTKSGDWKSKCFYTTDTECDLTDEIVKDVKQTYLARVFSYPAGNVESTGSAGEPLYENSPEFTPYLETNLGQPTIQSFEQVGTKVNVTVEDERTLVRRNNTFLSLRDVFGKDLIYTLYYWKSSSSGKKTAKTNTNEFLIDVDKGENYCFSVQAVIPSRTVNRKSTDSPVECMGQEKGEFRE
Sequence of FVIIa-sTF (human) (P08709 213-466 limits assumed, chain 3 of 3): as the sequence (P08709 213-466 limits assumed, chain 2 of 2) above

B1: hemextin AB complex (protein)
chain 1: LKCKNKLVPFLSKTCPEGKNLCYKMTMLKMPKIPIKRGCTDACPKSSLLVKVVCCNKDKCN
chain 2: LKCKNKVVPFLKCKNKVVPFLCYKMTLKKVPKIPIKRGCTDACPKSSLLVNVMCCKTDKCN
One may read the Ki as a measure of affinity in units of concentration, obtained from inhibition or displacement. Low values mean a stronger hold on the target, high ones a looser hold on the target. In the assay with FVIIa (human) [1], B1 gave a Ka of 411000 M⁻¹, a ΔG of -7.54, a ΔH of -7.93 and a ΔS of -1.25 cal/M. In the assay with FVIIa (human) [2], this molecule returned an IC50, inhibition of FVIIa amidolytic activity in the absence of sTF of 105 nM and an inhibitory potency towards FVIIa relative to plasma kallikrein above 50 times. Also, in the assay with FVIIa-sTF (human) [3], the IC50, inhibition of FVIIa amidolytic activity in the presence of sTF is 100 nM. In the assay with FVIIa-sTF (human) [4], this molecule gave a Ki of 25 nM.
